This note sets out measurements from US20090317358A1.

For the assay, the target named is human high affinity receptor for IL2 (IL2R) (human) (UniProt P01589). Description: cell-based or functional assay.
UniProt P01589, sequence (P01589 22-272, chain 1 of 3): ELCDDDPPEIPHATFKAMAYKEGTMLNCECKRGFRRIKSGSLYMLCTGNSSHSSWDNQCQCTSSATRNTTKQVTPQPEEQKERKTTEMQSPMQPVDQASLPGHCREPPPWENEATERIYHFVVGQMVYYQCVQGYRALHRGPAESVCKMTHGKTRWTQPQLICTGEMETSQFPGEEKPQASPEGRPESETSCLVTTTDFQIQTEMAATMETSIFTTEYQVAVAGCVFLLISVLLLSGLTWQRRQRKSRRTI
UniProt P01589, sequence (P14784 27-551, chain 2 of 3, further chain): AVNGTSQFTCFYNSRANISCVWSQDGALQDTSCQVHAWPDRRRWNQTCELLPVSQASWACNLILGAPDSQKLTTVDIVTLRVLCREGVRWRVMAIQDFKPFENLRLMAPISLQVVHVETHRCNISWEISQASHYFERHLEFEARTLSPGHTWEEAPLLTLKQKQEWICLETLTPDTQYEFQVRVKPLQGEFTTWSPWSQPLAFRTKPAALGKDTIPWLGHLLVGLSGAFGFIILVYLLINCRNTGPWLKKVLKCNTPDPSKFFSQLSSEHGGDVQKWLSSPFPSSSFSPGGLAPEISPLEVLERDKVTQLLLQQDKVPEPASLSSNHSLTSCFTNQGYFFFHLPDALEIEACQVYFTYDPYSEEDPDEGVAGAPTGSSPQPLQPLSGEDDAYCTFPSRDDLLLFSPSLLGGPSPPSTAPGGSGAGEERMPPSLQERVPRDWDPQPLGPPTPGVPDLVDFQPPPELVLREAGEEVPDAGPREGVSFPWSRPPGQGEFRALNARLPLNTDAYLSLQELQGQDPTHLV
UniProt P01589, sequence (P31785 23-369, chain 3 of 3, further chain): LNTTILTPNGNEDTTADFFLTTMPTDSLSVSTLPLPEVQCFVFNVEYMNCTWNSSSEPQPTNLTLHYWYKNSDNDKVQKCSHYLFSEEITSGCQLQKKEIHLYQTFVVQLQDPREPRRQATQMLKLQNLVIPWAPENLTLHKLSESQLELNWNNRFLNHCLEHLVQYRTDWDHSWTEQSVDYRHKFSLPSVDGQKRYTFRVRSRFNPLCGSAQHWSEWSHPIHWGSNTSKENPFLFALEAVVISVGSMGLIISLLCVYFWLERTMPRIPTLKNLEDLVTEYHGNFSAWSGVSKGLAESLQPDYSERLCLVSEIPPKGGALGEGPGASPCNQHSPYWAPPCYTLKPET

IL2-Bax chimeric protein: the M1, fresh lymphocytes analyzed by FACS, IL2-Bax 1 µg (Experiment No. 1) was found to be 17.5; the M1, fresh lymphocytes analyzed by FACS, IL2-Bax 5 µg (Experiment No. 1) was found to be 24.3; the M1, fresh lymphocytes analyzed by FACS, IL2-Bax 10 µg (Experiment No. 1) was determined as 42.1; the M1 - 2, fresh lymphocytes analyzed by FACS, IL2-Bax 1 µg (Experiment No. 1) turned out to be 13.5. The substance further came in with an M1 - 2, fresh lymphocytes analyzed by FACS, IL2-Bax 5 µg (Experiment No. 1) of 20; an M1 - 2, fresh lymphocytes analyzed by FACS, IL2-Bax 10 µg (Experiment No. 1) of 35; an M2, fresh lymphocytes analyzed by FACS, IL2-Bax 1 µg (Experiment No. 1) of 4; an M2, fresh lymphocytes analyzed by FACS, IL2-Bax 5 µg (Experiment No. 1) of 4.3. Further, the M2, fresh lymphocytes analyzed by FACS, IL2-Bax 10 µg (Experiment No. 1) stood at 9.1; the UL + UR, fresh lymphocytes analyzed by FACS, IL2-Bax 1 µg (Experiment No. 2) came out at 10.5; the UL + UR, fresh lymphocytes analyzed by FACS, IL2-Bax 10 µg (Experiment No. 2) was 31.6; the UL, fresh lymphocytes analyzed by FACS, IL2-Bax 1 µg (Experiment No. 2) came to 4.98. This substance showed a UL, fresh lymphocytes analyzed by FACS, IL2-Bax 10 µg (Experiment No. 2) of 14.7; a UR, fresh lymphocytes analyzed by FACS, IL2-Bax 1 µg (Experiment No. 2) of 5.56; a UR, fresh lymphocytes analyzed by FACS, IL2-Bax 10 µg (Experiment No. 2) of 16.8; an apoptotic cells in fresh human lymphocytes treated with IL2-Bax (FACS) of 2 to 14%. This substance gave an increase in the percentage of the apoptotic-cell population (sub-G1, FACS), HUT102 cells, highest concentration tested of 3.6 fold.
